The experiment has as its target Claspin C-terminal polypeptide #18 (897-1339aa), 3x Flag, dephosphorylated with λPPase (human, UniProt Q9HAW4 897-1339, dephosphorylated with λPPase). The experiment can be described thus: native gel or EMSA.

Sequence of Claspin C-terminal polypeptide #18 (897-1339aa), 3x Flag, dephosphorylated with λPPase (Q9HAW4 897-1339): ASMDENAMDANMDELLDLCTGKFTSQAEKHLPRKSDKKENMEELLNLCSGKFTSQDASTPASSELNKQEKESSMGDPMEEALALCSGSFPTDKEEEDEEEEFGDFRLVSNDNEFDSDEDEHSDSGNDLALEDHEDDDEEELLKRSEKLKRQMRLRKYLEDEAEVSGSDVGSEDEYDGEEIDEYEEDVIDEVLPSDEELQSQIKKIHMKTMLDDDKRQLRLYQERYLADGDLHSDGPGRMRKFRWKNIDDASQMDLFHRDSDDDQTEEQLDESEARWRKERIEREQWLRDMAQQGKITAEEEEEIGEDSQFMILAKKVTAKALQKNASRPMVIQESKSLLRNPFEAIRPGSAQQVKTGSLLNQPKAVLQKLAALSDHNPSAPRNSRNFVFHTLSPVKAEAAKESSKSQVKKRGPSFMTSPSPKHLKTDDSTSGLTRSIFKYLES

B1: Claspin N-terminal polypeptide #2 (1-350aa), dephosphorylated with λPPase (domain or fragment)
chain: MTGEVGSEVHLEINDPNVISQEEADSPSDSGQGSYETIGPLSEGDSDEEIFVSKKLKNRKVLQDSDSETEDTNASPEKTTYDSAEEENKENLYAGKNTKIKRIYKTVADSDESYMEKSLYQENLEAQVKPCLELSLQSGNSTDFTTDRKSSKKHIHDKEGTAGKAKVKSKRRLEKEERKMEKIRQLKKKETKNQEDDVEQPFNDSGCLLVDKDLFETGLEDENNSPLEDEESLESIRAAVKNKVKKHKKKEPSLESGVHSFEEGSELSKGTTRKERKAARLSKEALKQLHSETQRLIRESALNLPYHMPENKTIHDFFKRKPRPTCHGNAMALLKSSKYQSSHHKEIIDT
modifications: dephosphorylated with λPPase
For B1, the binding result is on record as “binds”.

(Values after article doi:10.1101/2024.01.08.574761 (bioRxiv, 2024).)
